Reference: patent US9879094B2, “Nucleic acid molecules encoding for BACE1 antibodies” (Genentech, Inc., priority 2010, dated 2018)
“And” between values parts separate entries of the source, which are not always exact repeats. Equal entries are not always repeated. “Also recorded” adds a separate entry of the source.

Tests used:
BACE2 = biological target: T1, BACE2 (Homo sapiens, UniProt Q9Y5Z0); assay: SPR analysis, BACE2; type: binding
T1 sequence (Q9Y5Z0 63-518): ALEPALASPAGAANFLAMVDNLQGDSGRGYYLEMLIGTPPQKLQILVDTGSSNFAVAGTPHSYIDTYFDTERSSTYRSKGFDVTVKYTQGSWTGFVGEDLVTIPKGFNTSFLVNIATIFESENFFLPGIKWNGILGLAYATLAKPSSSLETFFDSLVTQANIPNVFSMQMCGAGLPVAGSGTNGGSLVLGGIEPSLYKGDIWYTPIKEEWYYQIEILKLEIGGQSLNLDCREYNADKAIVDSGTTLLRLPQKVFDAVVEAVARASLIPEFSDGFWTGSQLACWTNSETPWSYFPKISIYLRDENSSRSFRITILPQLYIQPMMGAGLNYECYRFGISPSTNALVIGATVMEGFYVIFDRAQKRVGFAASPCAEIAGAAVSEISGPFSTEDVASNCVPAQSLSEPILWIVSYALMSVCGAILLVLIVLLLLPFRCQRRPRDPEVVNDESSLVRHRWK
Experimental: Further characterization of this antibody was performed to better understand its function.

[1] = system: E13.5 dorsal root ganglia neurons; assay: Aβ40 production in DRG neurons; type: cell-based, mouse; conditions: highest concentrations
Experimental: Similar studies were also performed in dorsal root ganglia, cortical neurons and hippocampal neurons isolated from mice. Briefly, dissociated neuronal cultures were prepared from E13.5 dorsal root ganglia (DRG), E16.5 cortical neurons and E16.5 hippocampal neurons. Neurons were grown for five days in vitro. Fresh media containing YW412.8.31 anti-BACE antibody or control IgG1 was incubated with the neurons for 24 hours. Media was harvested and assayed for the presence of Aβ40 using the MSD® Rodent/Human (4G8) A1340 Ultrasensitive kit according to the Manufacturer's instructions. Aβ40 values were normalized for cell viability, as determined using the CellTiter-Glo Luminescent Cell Viability Assay (Promega). The experiment was performed at least three times, and each point was repeated in duplicate. Data was plotted using a four-parameter non-linear regression curve-fitting program (Kaleidagraph, Synergy Software).

[2] = system: Aβ1-40 in wild-type C57Bl/6J mice; assay: Wild-type C57Bl/6J mice, IP dosing, Aβ1-40 levels; type: in vivo, mouse
Experimental: Additional experiments with wild-type C57Bl/6J mice were performed in which 100 mg/kg of YW412.8.31, or a control IgG, was administered systemically. Levels of Aβ1-40 in both the plasma and forebrain of treated animals four hours after a single intraperitoneal (IP) injection were determined. Blood was collected from animals by cardiac puncture to isolate plasma.
Following PBS perfusion, the brain was harvested and forebrain from one hemibrain was prepared in PK buffer (1% NP-40 in PBS, with Roche complete protease inhibitors) whereas forebrain from the other hemibrain was homogenized in 5M GuHCL, 50 mM Tris pH 8.0, and further diluted in Casein Blocking Buffer (0.25% casein/0.05% sodium azide, 20 μg/ml aprotinin/5 mM EDTA, pH 8.0/10 μg/ml leupeptin in PBS) for Aβ1-40 analysis.
Additional experiments were performed in order to determine the effect of elevated brain antibody levels through repeated dosing. YW412.8.31 antibody, or control IgG, was administered at 30 or 100 mg/kg IP every 4 days for a total of 3 doses. In this study the levels of Aβ1-40 in both the plasma and forebrain of treated animals 4 hours post last dose were measured. Again, ˜50% reduction in plasma Aβ1-40 levels following multi-dosing at both 30 and 100 mg/kg was observed (FIG. 22, panel B). […] YW412.8.31 antibody concentrations in serum were 480±210 and 1500±440 μg/mL, and concentrations in brain were 0.9±0.6 μg/g (5.9±4.3 nM) and 3.0±1.6 μg/g (20±10 nM) following administration at 30 and 100 mg/kg given every 4 days, respectively.

[3] = Serum PK in BALB/C and BACE1 knock-out mice; type: in vivo, mouse
Experimental: Additionally, PK data was obtained after dosing with YW412.8.31 anti-BACE1 antibody in wild-type and BACE1 knock-out mice. A single dose of anti-BACE1 (1 or 10 mg/kg) was delivered via IV injection to BALB/C mice. Serum PK was analyzed out to 21 days post-dose.
Total anti-BACE1 antibody concentrations in mouse serum and brain samples were measured as follows. Antibody concentrations in mouse serum and brain samples were measured using an enzyme-linked immunosorbent assay (ELISA). NUNC 384 well Maxisorp immunoplates (Neptune, N.J.) were coated with F(ab′)2 fragment of donkey anti-human IgG, Fc fragment specific polyclonal antibody (Jackson ImmunoResearch, West Grove, Pa.) overnight at 4° C. Plates were blocked with phosphate-buffered saline (PBS) containing 0.5% bovine serum albumin (BSA) for 1 hour at room temperature the next day. Each antibody (Control IgG and anti-BACE1) was used as a standard to quantify the respective antibody concentrations. […] Bound antibody was detected with horseradish peroxidase conjugated F(ab′)2 goat anti-human IgG, Fc specific polyclonal antibody (Jackson ImmunoResearch). […] Absorbance was measured at a wavelength of 450 nm with a reference of 630 nm on a Multiskan Ascent reader (Thermo Scientific, Hudson, N.H.). Concentrations were determined from the standard curve using a four-parameter non-linear regression program. […]

B1: YW412.8.31: affinity matured form of YW412.8 anti-BACE1 antibody (antibody, V domains shown)
VH: EVQLVESGGGLVQPGGSLRLSCAASGFTFLGYGIHWVRQAPGKGLEWVGWISPAGGSTDYADSVKGRFTISADTSKNTAYLQMNSLRAEDTAVYYCARGPFSPWVMDYWGQGTLVTVSS
VL: DIQMTQSPSSLSASVGDRVTITCRASQDVSTAVAWYQQKPGKAPKLLIYSASFLYSGVPSRFSGSGSGTDFTLTISSLQPEDFATYYCQQFPTYLPTFGQGTKVEIK
binding to BACE2 (BACE2): does not bind
reduction in Aβ40 production [1]: ~50%
reduction of forebrain Aβ1-40 ([2]; 30 mg/kg IP, 3 doses every 4 days): no reduction; also recorded: not reduced
reduction of forebrain Aβ1-40 ([2]; 100 mg/kg IP, 3 doses every 4 days): 42%
change in forebrain Aβ1-40 ([2]; 100 mg/kg single IP, 4 hours): no change; also recorded: not reduced
reduction of plasma Aβ1-40 ([2]; 100 mg/kg single IP, 4 hours): ~50% and 48%
reduction of plasma Aβ1-40 ([2]; 30 and 100 mg/kg IP, 3 doses every 4 days, 4 hours after last dose): ~50% and 50-53%
serum PK kinetics ([3]; 1 or 10 mg/kg single IV, BALB/C mice, to 21 days): non-linear
serum PK kinetics ([3]; single dose, BACE1−/− mice): linear PK
